Measurements reported in the supplement of paper PMC11908140.

B1: library; numbered along this chain (parent)
chain: MRKPRAAVGSGHRKQAASQEGRQKHAKNNSQAKPSACDGLARQPEEVVLQASVSSYHLFRDVAEVTAFRGSLLSWYDQEKRDLPWRRRAEDEMDLDRRAYAVWVSEVMLQQTQVATVINYYTGWMQKWPTLQDLASASLEEVNQLWAGLGYYSRGRRLQEGARKVVEELGGHMPRTAETLQQLLPGVGRYTAGAIASIAFGQATGVVDGNVARVLCRVRAIGADPSSTLVSQQLWGLAQQLVDPARPGDFNQAAMELGATVCTPQRPLCSQCPVESLCRARQRVEQEQLLASGSLSGSPDVEECAPNTGQCHLCLPPSEPWDQTLGVVNFPRKASRKPPREESSATCVLEQPGALGAQILLVQRPNSGLLAGLWEFPSVTWEPSEQLQRKALLQELQRWAGPLPATHLRHLGEVVHTFSHIKLTYQVYGLALEGQTPVTTVPPGARWLTQEEFHTAAVSTAMKKVFRVYQGQQPGTCMGSKRSQVSSPCSRKKPRMGQQVLDNFFRSHISTDAHSLNSAAQ

Variants of: B1
Test: 8OG:A repair function score (normalized; synonymous = 0, nonsense = -1) (normalized log-likelihood score); higher = more repair activity (WT-like)
Conditions: with 8OG:A DNA repair reporter (GFP) in HEK-293 MUTYH KO cells
How it was run: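 Lentiviral MUTYH cDNA NNN codon-scan libraries were expressed in MUTYH knockout HEK-293 cells with 10 pg/ml doxycycline, and the cells received an 8OG:A GFP repair reporter together with mCherry. At 72 h, viable mCherry+ cells went into GFP+ (repair) or GFP− bins, three replicates per tile, before tile amplicons were sequenced. A repair function score was then built from per-tile Rosace fitness scores, anchored on the synonymous and nonsense distributions. Synonymous medians sat at 0 and nonsense at -1, and variants under 300 counts per million at the start were left out.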
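Also: cells sorted at 72 h after reporter transfection.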

Variant | 8OG:A repair function score
R266E | -0.22
R266M | -0.0578
R266K | 0.00702
R266G | -0.111
R266C | -0.085
R266L | -0.152
R266T | -0.142
R266P | -0.449
R266N | -0.0656
R266F | -0.104
R266H | 0.00581
R266D | -0.269
R266S | -0.0823
R266A | -0.0544
R266I | -0.164
R266Q | -0.165
R266W | -0.135
R266V | -0.119
R266Y | -0.102
N251M | -0.915
N251C | -0.884
N251Q | -0.901
N251L | -0.938
N251S | -0.903

Variant | 8OG:A repair function score
N251R | -1.02
N251K | -0.983
N251F | -1.03
N251Y | -1.01
N251G | -0.951
N251W | -0.879
N251H | -0.943
N251V | -0.84
N251E | -1.02
N251A | -0.847
N251I | -0.889
N251T | -0.798
N251D | -0.947
N251P | -1.02
T260R | -0.0323
T260E | -0.154
T260W | -0.207
T260I | -0.0181
T260K | -0.0184
T260Q | -0.0253
T260Y | -0.385
T260D | -0.355
T260P | -1.17
T260L | -0.00446

Variant | 8OG:A repair function score
T260V | -0.0429
T260M | -0.0209
T260F | -0.281
T260N | -0.111
T260S | -0.104
T260A | -0.056
T260C | -0.129
T260G | -0.126
T260H | -0.293
A259S | -0.0739
A259I | -0.953
A259C | -0.242
A259G | -0.148
A259T | -0.329
A259N | -0.257
A259Y | -0.675
A259E | -0.0308
A259D | -1
A259F | -0.503
A259M | -0.739
A259W | -0.859
A259H | -0.138
A259P | -1.09
A259L | -0.889

Variant | 8OG:A repair function score
A259Q | 0.0355
A259K | -0.197
A259V | -0.765
A259R | -0.0545
E256R | -0.814
E256T | -0.514
E256H | -1.34
E256S | -0.507
E256G | -0.676
E256P | -1.07
E256A | -0.756
E256F | -0.679
E256V | -1.14
E256I | -0.901
E256C | -0.939
E256L | -0.906
Q252A | -0.658
Q252V | -0.798
Q252H | -0.873
Q252S | -0.483
Q252P | -1
Q252E | -0.386
Q252L | -0.863
Q252M | -0.854

Variant | 8OG:A repair function score
Q252R | -1.01
Q252I | -0.942
Q252G | -0.891
Q252D | -1.01
Q252F | -1.02
Q252W | -1.04
Q252K | -0.999
Q252Y | -0.982
Q252T | -0.856
Q252N | -0.588
Q252C | -0.576
A254Q | -0.213
A254G | -0.374
A254L | 0.114
A254N | -0.427
A254H | -0.175
A254F | 0.057
A254R | -0.99
A254T | -2.58e-05
A254V | 0.0529
A254K | -0.725
A254D | -0.87
A254P | -0.979
A254W | -0.393

Variant | 8OG:A repair function score
A254E | -0.62
A254I | 0.133
A254C | -0.0862
A254M | 0.317
A254S | -0.223
A254Y | -0.534
M255G | -1.02
M255C | -0.788
M255D | -1.03
M255F | -0.873
M255K | -1.01
M255L | -0.962
M255H | -1.03
M255W | -1.04
M255Q | -0.993
M255P | -1
M255I | -0.363
M255N | -1.03
M255R | -1.03
M255T | -0.883
M255S | -1.01
M255A | -0.993
M255V | -0.846
M255Y | -1.02

Variant | 8OG:A repair function score
M255E | -0.876
A253S | -0.559
A253I | -1.02
A253T | -0.994
A253D | -1.03
A253Q | -1.02
A253N | -1.01
A253M | -1.03
A253E | -1.02
A253L | -1.02
A253Y | -0.985
A253G | -0.438
A253H | -1.03
A253W | -0.975
A253V | -1
A253R | -1.01
A253K | -1.02
A253P | -1.02
A253F | -1.03
A253C | -0.853
P264A | -0.0364
P264N | -0.0423
P264E | -0.25
P264K | -0.048

Variant | 8OG:A repair function score
P264R | -0.0983
P264T | -0.066
P264Q | -0.145
P264S | -0.0872
P264F | -0.223
P264I | -0.1
P264V | -0.0712
P264H | -0.113
P264G | -0.159
P264M | -0.233
P264L | -0.0962
P264C | -0.102
P264W | -0.113
P264Y | -0.087
P264D | -0.274
Q265S | -0.0301
Q265P | -0.252
Q265N | -0.0302
Q265T | 0.00721
Q265G | -0.0557
Q265K | -0.0319
Q265H | 0.0203
Q265D | -0.156
Q265M | -0.0825

Variant | 8OG:A repair function score
Q265C | -0.0499
Q265F | -0.022
Q265E | -0.243
Q265I | -0.0274
Q265V | -0.0775
Q265L | -0.0663
Q265W | -0.0937
Q265R | 0.00654
Q265A | -0.0137
Q265Y | -0.00929
C262A | -1.38
C262R | -1.05
C262L | -1.26
C262D | -1.2
C262K | -1.3
C262M | -1.06
C262E | -1.28
C262N | -1.19
C262Y | -1.21
C262V | -1.26
C262F | -1.14
C262G | -1
C262T | -1.19
C262Q | -1.27

Variant | 8OG:A repair function score
C262I | -1.12
C262H | -1.1
C262W | -0.941
C262S | -1.38
C262P | -1.18
T263C | -0.141
T263G | -0.115
T263V | -0.0463
T263Y | -0.113
T263S | -0.0723
T263E | -0.267
T263K | -0.017
T263I | -0.0749
T263M | -0.0448
T263Q | -0.129
T263N | -0.0422
T263P | -0.461
T263F | -0.0981
T263H | -0.124
T263L | -0.0322
T263W | -0.28
T263D | -0.24
T263R | -0.0312
T263A | -0.167

Variant | 8OG:A repair function score
L257M | -0.192
L257F | -0.285
L257E | -1.08
L257C | -0.298
L257S | -0.983
L257P | -1
L257V | -0.182
L257Q | -0.72
L257K | -1.22
L257A | -0.805
L257D | -0.98
L257G | -1.04
L257T | -0.763
L257H | -0.401
L257R | -1.09
L257W | -0.968
L257I | -0.176
L257Y | -0.76
L257N | -1.21
G258Y | -1.23
G258R | -1.2
G258F | -1.24
G258T | -1.21
G258Q | -1.21

Variant | 8OG:A repair function score
G258P | -1.06
G258L | -1.12
G258V | -1.2
G258S | -1.05
G258W | -1.49
G258D | -1.04
G258K | -1.14
G258E | -1.27
G258M | -1.19
G258N | -1.2
G258I | -1.02
G258H | -1.65
G258C | -1.12
V261W | -0.489
V261E | -0.804
V261L | -0.0765
V261Y | -0.342
V261K | -0.147
V261C | -0.11
V261S | -0.503
V261I | -0.0723
V261A | -0.399
V261F | -0.278
V261H | -0.25

Variant | 8OG:A repair function score
V261P | -0.891
V261Q | -0.57
V261R | -0.0976
V261N | -0.379
V261G | -0.599
V261T | -0.0821
V261M | -0.124
V261D | -0.737
P267E | -0.836
P267L | -1.03
P267A | -0.131
P267K | -1.06
P267C | -0.372
P267I | -0.711
P267H | -0.87
P267G | -0.225
P267F | -0.919
P267M | -0.774
P267D | -1.1
F250W | -0.258
F250C | -0.435
F250A | -0.516
F250V | -0.797
F250Q | -0.831

Variant | 8OG:A repair function score
F250S | -0.385
F250T | -0.65
F250R | -1.01
F250D | -1.01
F250M | -0.607
F250N | -0.903
F250P | -1.03
F250E | -1.03
F250K | -1.03
F250G | -0.867
F250L | -0.595
F250H | -0.485
F250Y | 0.0779
F250I | -0.896
D249W | -0.851
D249T | -0.459
D249V | -0.579
D249Y | -0.608
D249S | -0.402
D249P | -0.588
D249R | -0.663
D249Q | -0.428
